In patent US20260001961A1 (ALLIGATOR BIOSCIENCE, published 2026):
Positions count from the first letter of the chain named. Names may count otherwise. Where two headings read alike, the source gives them in different places.

What was measured:
[1] = biological target: T1, 5T4 expressed on CHO cells (UniProt Q13641 32-420, limits assumed); experiment: flow cytometry on CHO cells expressing 5T4, anti-human IgG Fcg-PE; CHOwt cells as control
T1 construct: whole, on cells; also called CHO-5T4; 5T4 expressing CHO cells
T1 sequence (looked up): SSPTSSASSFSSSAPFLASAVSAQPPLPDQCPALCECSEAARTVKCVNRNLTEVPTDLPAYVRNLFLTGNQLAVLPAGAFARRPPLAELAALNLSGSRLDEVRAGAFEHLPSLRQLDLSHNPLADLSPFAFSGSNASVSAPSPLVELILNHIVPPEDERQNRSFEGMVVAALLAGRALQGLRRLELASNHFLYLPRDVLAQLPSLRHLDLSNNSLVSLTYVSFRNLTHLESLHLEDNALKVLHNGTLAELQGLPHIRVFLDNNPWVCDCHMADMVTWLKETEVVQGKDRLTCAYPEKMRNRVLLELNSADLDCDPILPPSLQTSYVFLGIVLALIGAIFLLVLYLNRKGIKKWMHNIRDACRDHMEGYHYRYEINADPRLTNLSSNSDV
Procedure: (§1) Binding to respective targets expressed on cells were evaluated using flow cytometry. I brief, CHO cells modified to express 5T4, B16 cells modified to express CD40 as well as the wildtype CHO and B16 cell lines were incubated with titrated concentrations of RUBY™ bsAbs. Binding of the antibodies was detected using fluorochrome-conjugated anti-human IgG and analyzed using flow cytometry.

CD40 expressed on cells [2] = biological target: T2, CD40 expressed on cells (UniProt P25942 21-277); experiment: flow cytometry on B16 cells expressing CD40, anti-human IgG Fcg-PE; B16wt cells as control
T2 construct: whole, on cells; also called B16-CD40; CD40 expressing B16 cells
T2 sequence (P25942 21-277 limits assumed): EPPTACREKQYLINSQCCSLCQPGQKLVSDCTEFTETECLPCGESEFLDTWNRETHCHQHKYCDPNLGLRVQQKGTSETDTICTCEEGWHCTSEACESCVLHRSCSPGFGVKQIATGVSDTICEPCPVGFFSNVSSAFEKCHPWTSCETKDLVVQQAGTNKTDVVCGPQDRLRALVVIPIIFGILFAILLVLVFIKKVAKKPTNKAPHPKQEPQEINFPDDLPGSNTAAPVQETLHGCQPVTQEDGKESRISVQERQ
Procedure: as §1

CD40 [3] = biological target: T3, CD40 (UniProt P25942 21-193); experiment: dual target ELISA with 5T4 and CD40 (one coated, the other biotinylated; which is not stated), streptavidin-HRP; signal needs both targets
T3 construct: also called biotinylated CD40; CD40 antigen
T3 sequence (P25942 21-193 limits assumed): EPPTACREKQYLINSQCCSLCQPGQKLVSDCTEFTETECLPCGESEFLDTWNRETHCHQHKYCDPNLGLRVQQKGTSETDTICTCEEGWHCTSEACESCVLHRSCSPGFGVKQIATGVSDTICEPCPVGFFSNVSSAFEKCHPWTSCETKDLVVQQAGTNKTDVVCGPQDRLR

5T4 [4] = biological target: T4, 5T4 (UniProt Q13641 32-355); experiment: as above
T4 construct: also called 5T4 antigen (dual target ELISA)
T4 sequence (looked up): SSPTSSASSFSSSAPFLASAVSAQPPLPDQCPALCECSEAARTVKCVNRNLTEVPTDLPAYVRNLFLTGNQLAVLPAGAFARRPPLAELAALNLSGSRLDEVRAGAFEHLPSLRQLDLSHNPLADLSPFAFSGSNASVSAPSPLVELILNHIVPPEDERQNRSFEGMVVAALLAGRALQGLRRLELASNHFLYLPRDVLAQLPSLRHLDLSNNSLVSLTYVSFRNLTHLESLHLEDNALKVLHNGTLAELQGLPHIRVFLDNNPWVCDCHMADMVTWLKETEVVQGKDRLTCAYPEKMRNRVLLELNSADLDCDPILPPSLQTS

5T4 [5] = biological target: T4, 5T4; experiment: dual target ELISA (simultaneous 5T4 and CD40)
Procedure: Antigen binding was evaluated by dual target ELISA. In brief, relevant antigens were coated at 0.5 μg/ml in PBS in ELISA plates over night at 4° C. After washing in PBS/0.05% Tween 20 (PBST), the plates were blocked with PBST/2% BSA for at least 30 minutes at room temperature before being washed again. Samples serially diluted in PBST/0.5% BSA were then added and allowed to bind for at least 1 hour at room temperature. […] Dual complexed bsAb were detected with HRP-labelled streptavidin. SuperSignal Pico Luminescent was used as substrate and luminescence signals were measured using Fluostar Optima. Binding was compared between parental and mutated RUBY pairs.

CD40 [6] = biological target: T3, CD40; experiment: Octet BLI; biotinylated CD40 on streptavidin sensor;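 further: octet RED96 biolayer interferometry, 300 s association then 300 s dissociation in kinetic buffer, buffer-blank referenced, fitted with a 1:1 Langmuir binding model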
Procedure: (§2) Kinetic measurements were performed using the Octet RED96 platform (ForteBIo). […] Association was followed for 300 seconds followed by dissociation in 1x Kinetic buffer for 300 seconds. Sensor tips were regenerated using 10 mM glycine, pH 1.7. Data generated were referenced by subtracting a parallel buffer blank, the baseline was aligned with the γ-axis, inter-step correlation by alignment against dissociation was performed and the data were smoothed by a Savitzky-Golay filter in the data analysis software (v.9.0.0.14). The processed data were fitted using a 1:1 Langmuir binding model with X2 as a measurement of fitting accuracy.
(§3) Binding affinities of all the variants were determined using Octet (Pall ForteBio).

EpCAM = biological target: T5, EpCAM (UniProt P16422 24-265); experiment: Octet BLI; biotinylated EpCAM on streptavidin sensor;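 further: octet RED96 kinetics: 300 s association, then 300 s dissociation in 1x Kinetic buffer, buffer-blank referenced, Savitzky-Golay smoothed, fitted to a 1:1 Langmuir binding model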
T5 construct: also called biotinylated EpCAM
T5 sequence (looked up): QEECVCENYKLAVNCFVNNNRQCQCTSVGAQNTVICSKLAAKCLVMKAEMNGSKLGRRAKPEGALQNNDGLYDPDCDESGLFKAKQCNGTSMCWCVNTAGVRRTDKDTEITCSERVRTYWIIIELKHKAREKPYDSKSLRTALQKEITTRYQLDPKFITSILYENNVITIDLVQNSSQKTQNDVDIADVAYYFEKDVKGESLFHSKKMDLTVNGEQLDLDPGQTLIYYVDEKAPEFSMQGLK
Procedure: as §2, §3

CD40 [7] = biological target: T3, CD40; experiment: dual ELISA: CD40 coated, bsAb titrated, biotinylated EpCAM + streptavidin-HRP; signal needs both targets
Procedure: (§4) Dual ELISA Plates were coated with 0.5 μg/mL CD40 in PBS over night at 4° C. After washing in PBS/0.05% Tween 20 (PBST), the plates were blocked with PBS/2% BSA for at least 30 minutes at room temperature before being washed again. Samples serially diluted in PBS/0.5% BSA were then added and allowed to bind for at least 1 hour at room temperature. […] Dual complexed bsAb with CD40 and EpCAM were detected with HRP-labelled streptavidin. SuperSignal Pico Luminescent was used as substrate and luminescence signals were measured using Fluostar Optima.

CD40 [8] = biological target: T3, CD40; experiment: as above; remark: listed apart in the source
Procedure: as §4

CD40 [9] = biological target: T3, CD40; experiment: as above; remark: listed apart in the source
Procedure: as §4

[10] = biological target: T1, 5T4 expressed on CHO cells; experiment: flow cytometry on CHO cells expressing 5T4, anti-human IgG Fcg-PE; CHOwt cells as control; remark: listed apart in the source
Procedure: as §1

CD40 [11] = biological target: T3, CD40; experiment: dual ELISA: CD40 coated, bsAb titrated, biotinylated EpCAM + streptavidin-HRP; signal needs both targets; remark: listed apart in the source
Procedure: as §4

CD40 expressed on cells [12] = biological target: T2, CD40 expressed on cells; experiment: flow cytometry on B16 cells expressing CD40, anti-human IgG Fcg-PE; B16wt cells as control; remark: listed apart in the source
Procedure: as §1

B1: AC_05330 (bispecific antibody, human IgG1, lambda, L234A L235A)
heavy: not shown
light: not shown
chain: EVQLLESGGGLVQPGGSLRLSCAASGFTFSSYAMSWVREAPGKGLEWVSAISGSGGSTYYADSVKGRFTISRDNSKNTLYLQMNSLRAEDTAVYYCARYYGGYYSAWMDYWGQGTLVTVSSASTKGPSVFPLAPSSKSTSGGTAALGCLVKDYFPEPVTVSWNSGALTSGVHTFPAVLQSSGLYSLSSVVEVPSSSLGTQTYICNVNHKPSNTKVDKKVEPKSC
notes: RUBY format; H1 (role heavy) = IgG heavy chain-linker-Fab light chain, L1 (role light) = IgG light chain, H2 (role chain) = Fab heavy chain; also called parental bsAb AC_05330; CD40x5T4
- EC50 (read off the curve) [1]: ~30 nM
- EC50 (read off the curve) (CD40 expressed on cells [2]): ~0.8 nM
- EC50 (read off the curve) (CD40 [3]): ~0.8 nM
- EC50 (read off the curve) (5T4 [4]): ~0.8 nM

B2: AC_05373 (bispecific antibody, human IgG1, lambda, L234A L235A)
heavy 1: not shown
light: not shown
heavy 2: B1 chain with T58E
notes: AC_05330 with the mutation in the VH of chain H2; also called T65E mutant of AC_05330; copies: 2 + 2 + 2
- EC50 (read off the curve) [1]: ~30 nM
- EC50 (read off the curve) (CD40 expressed on cells [2]): ~0.6 nM
- EC50 (read off the curve) (CD40 [3]): ~0.7 nM
- EC50 (read off the curve) (5T4 [4]): ~0.7 nM

B3: AC_05374 (bispecific antibody, human IgG1, lambda, L234A L235A)
heavy 1: not shown
light: not shown
heavy 2: B1 chain with T58A
notes: AC_05330 with the mutation in the VH of chain H2; also called T65A mutant of AC_05330; copies: 2 + 2 + 2
- binding result (5T4 [5]): no binding
- binding result [1]: no binding (tested: about 700 nM)
- EC50 (read off the curve) (CD40 expressed on cells [2]): ~0.5 nM

B4: AC_05375 (bispecific antibody, human IgG1, lambda, L234A L235A)
heavy 1: not shown
light: not shown
heavy 2: B1 chain with T58I
notes: AC_05330 with the mutation in the VH of chain H2; also called T65I mutant of AC_05330; copies: 2 + 2 + 2
- binding result (5T4 [5]): no binding
- binding result [1]: no binding (tested: about 700 nM)
- EC50 (read off the curve) (CD40 expressed on cells [2]): ~0.4 nM

B5: AM_4115-4131 (bispecific antibody)
heavy 1: not shown
light: DIQMTQSPSSLSASVGDRVTITCRASQSISSYLNWYQEKPGKAPKLLIYAASSLQSGVPSRFSGSGSGTDFTLTISSLQPEDFATYYCQQYGRNPPTFGQGTKLEIKRTVAAPSVFIFPPSDEQLKSGTASVVCYLNNFYPREAKVQWKVDNALQSGNSQESVTEQDSKDSTYSLWSTLTLSKADYEKHKVYACEVTHQGLSSPVTKSFNRGEC
heavy 2: EVQLLEQSGAELVRPGTSVKISCKASGYAFTNYWLGWVKERPGHGLEWIGDIFPGSGNIHYNEKFKGKATLTADKSSSTAYMQLSSLTFEDSAVYFCARLRNWDEPMDYWGQGTTVTVSSASTKGPSVFPLAPSSKSTSGGTAALGCLVKDYFPEPVTVSWNSGALTSGVHTFPAVLQSSGLWSLSSVVEVPSSSLGTQTYICNVNHKPSNTKVDKKVEPKSC
notes: AC_05293 backbone; also called double mutant I126S + Y180W; copies: 2 + 2 + 2
- Kd (CD40 [6]): 0.97 nM
- koff (CD40 [6]): 0.00089 s⁻¹
- kon (CD40 [6]): 920000 M⁻¹ s⁻¹
- Kd (EpCAM): 7.2 nM
- koff (EpCAM): 0.0013 s⁻¹
- kon (EpCAM): 180000 M⁻¹ s⁻¹
- EC50 (read off the curve) (CD40 [7]): ~0.6 nM

B6: 4115 (bispecific antibody)
heavy 1: not shown
heavy 2: B5 heavy 2 with W183Y
light: B5 light
notes: also called single mutant I126S of AC_05293; copies: 2 + 2 + 2
- EC50 (read off the curve) (CD40 [8]): ~0.2 µg/mL

B7: 4114 (bispecific antibody)
heavy 1: not shown
heavy 2: B5 heavy 2 with W183Y
light: B5 light
notes: also called single mutant I126Q of AC_05293; copies: 2 + 2 + 2
- EC50 (read off the curve) (CD40 [9]): ~0.1 µg/mL

B8: AC_05370 (bispecific antibody, human IgG1, kappa, L234A L235A)
heavy 1: not shown
light: B5 light with Y91T, G92Y, R93G, N94Y, P95L, P96H
heavy 2: EVQLLESGGGLVQPGGSLRLSCAASGFTFSSYAMSWVREAPGKGLEWVSGIGSYGGGEYYADSVKGRFTISRDNSKNTLYLQMNSLRAEDTAVYYCARYVNFGMDYWGQGTLVTVSSASTKGPSVFPLAPSSKSTSGGTAALGCLVKDYFPEPVTVSWNSGALTSGVHTFPAVLQSSGLYSLSSVVEVPSSSLGTQTYICNVNHKPSNTKVDKKVEPKSC
notes: AC_05332 with the mutation in the VH of chain H2; also called T65E mutant of AC_05332; copies: 2 + 2 + 2
- EC50 (read off the curve) [10]: ~9 nM

B9: AM_4119 (bispecific antibody)
heavy 1: not shown
heavy 2: B5 heavy 2 with W183Y
light: B5 light
notes: also called single mutant A111T of AC_05293; copies: 2 + 2 + 2
- EC50 (read off the curve) (CD40 [11]): ~0.1 µg/mL

B10: 4116 (bispecific antibody)
heavy 1: not shown
heavy 2: B5 heavy 2 with W183Y
light: B5 light
notes: also called single mutant I126T of AC_05293; copies: 2 + 2 + 2
- EC50 (read off the curve) (CD40 [8]): ~0.1 µg/mL

B11: 4112 (bispecific antibody)
heavy 1: not shown
heavy 2: B5 heavy 2 with W183Y
light: B5 light
notes: also called single mutant I126N of AC_05293; copies: 2 + 2 + 2
- EC50 (read off the curve) (CD40 [9]): ~0.1 µg/mL

B12: AC_05378 (bispecific antibody)
heavy 1: not shown
light: B5 light
heavy 2: B1 chain with T58I
notes: AC_05302 with the mutation in the VH of chain H2; also called T65I mutant of AC_05302; copies: 2 + 2 + 2
- EC50 (read off the curve) (CD40 expressed on cells [12]): ~1 nM

B13: AC_05377 (bispecific antibody)
heavy 1: not shown
light: B5 light
heavy 2: B1 chain with T58A
notes: AC_05302 with the mutation in the VH of chain H2; also called T65A mutant of AC_05302; copies: 2 + 2 + 2
- EC50 (read off the curve) (CD40 expressed on cells [12]): ~1 nM

B14: AM_4120 (bispecific antibody)
heavy 1: not shown
heavy 2: B5 heavy 2 with W183Y
light: B5 light
notes: also called single mutant A111V of AC_05293; copies: 2 + 2 + 2
- EC50 (read off the curve) (CD40 [11]): ~0.1 µg/mL

B15: AM_4121 (bispecific antibody)
heavy 1: not shown
heavy 2: B5 heavy 2 with W183Y
light: B5 light
notes: also called single mutant A111W of AC_05293; copies: 2 + 2 + 2
- EC50 (read off the curve) (CD40 [11]): ~0.1 µg/mL

B16: AM_4115-4126 (bispecific antibody)
heavy 1: not shown
heavy 2: B5 heavy 2 with W183I
light: B5 light
notes: AC_05293 backbone; also called double mutant I126S + Y180I; copies: 2 + 2 + 2
- Kd (CD40 [6]): 1.1 nM
- koff (CD40 [6]): 0.00085 s⁻¹
- kon (CD40 [6]): 740000 M⁻¹ s⁻¹
- Kd (EpCAM): 6.9 nM
- koff (EpCAM): 0.0011 s⁻¹
- kon (EpCAM): 170000 M⁻¹ s⁻¹
- EC50 (read off the curve) (CD40 [7]): ~0.5 nM
